Columns and labels:
recombinant human IL-18 [1] = biological target: T1, recombinant human IL-18 (human, UniProt Q14116 37-193); assay: Luminex; biotinylated IL-18BP (competitor) on IL-18 beads pre-bound with the mAb; the signal is IL-18BP binding
T1 construct: Commercial recombinant human IL-18; In the Luminex screening it was attached to beads; also called Interleukin-18; human interleukin-18
T1 sequence (looked up): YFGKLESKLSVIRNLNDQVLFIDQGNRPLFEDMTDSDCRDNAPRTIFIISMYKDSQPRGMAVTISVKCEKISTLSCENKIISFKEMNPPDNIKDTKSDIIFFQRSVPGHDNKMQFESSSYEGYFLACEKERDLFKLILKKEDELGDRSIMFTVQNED

IL-18/IL-18BP complex [2] = biological target: T2, IL-18/IL-18BP complex (human, UniProt Q14116 37-193); assay: Luminex third screening against first screening
T2 construct: Complex of IL-18 with IL-18BP; in the third Luminex screening step IL-18BP was linked to the beads and then complexed to IL-18; Stoichiometry 1:1 is only cited from the literature; also called IL-18 previously complexed to IL-18BP; complex IL-18/IL-18BP
T2 sequence 1: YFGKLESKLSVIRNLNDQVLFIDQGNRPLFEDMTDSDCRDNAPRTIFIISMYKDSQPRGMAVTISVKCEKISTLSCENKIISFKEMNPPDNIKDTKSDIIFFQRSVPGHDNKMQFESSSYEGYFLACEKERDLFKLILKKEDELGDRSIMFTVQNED
T2 sequence 2: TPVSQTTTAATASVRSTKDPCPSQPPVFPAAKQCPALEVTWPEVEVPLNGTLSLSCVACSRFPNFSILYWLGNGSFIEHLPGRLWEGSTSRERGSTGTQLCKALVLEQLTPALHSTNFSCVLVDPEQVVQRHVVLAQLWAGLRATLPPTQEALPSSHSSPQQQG

IL-18/IL-18BP complex [3] = biological target: T2, IL-18/IL-18BP complex; assay: Luminex; mAb on IL-18 complexed to bead-linked IL-18BP
recombinant human IL-18 [4] = biological target: T1, recombinant human IL-18; assay: Luminex; mAb on IL-18 beads

Row | Binder | Fluorescence intensity (IL-18BP binding on IL-18 previously complexed to monoclonal antibody) (recombinant human IL-18 [1]) | fold inhibition of binding to IL-18 complexed to IL-18BP against binding to IL-18 alone (IL-18/IL-18BP complex [2]) | Fluorescence intensity (IL-18/IL-18BP complex [3]) | Fluorescence intensity (recombinant human IL-18 [4])
1 | Antibody 131E8 (antibody) chain 1: QVQLKQSRPGPVQPSQSLSITCTVSGFSLPNYGVHWVRQPPGKGLEWLGVIWSGGSTDYNAAFKSRLSISKDNSKSQVFFKMNSLQADDTAIYYCARNFYSKYDYAMDYWGQGTSVTVSS chain 2: QVQLQQPGSVLVRPGASVKLSCKASGYTFTSYWMHWVKQRPGQGLEWIGNINPNSGSTNYNEKFKGKATLTVDTSSSTAYMDLSSLTSEDSAVYYCARLGDYWGQGTTLTVSS chain 3: ENVLTQSPAIMSASPGEKVTMTCSASSSVSYMHWYQQKSSTSPKLWIYDTSKLASGVPGRFSGSGSGNSYSLTISSMEAEDVATYYCFQGSGYPLTFGSGTKLEIK | 1390 fluorescence intensity | > 500 fold | 36 fluorescence intensity | 25400 fluorescence intensity
2 | Antibody 111A6 (antibody, V domains shown) VH: EVQLQQSGAELVKPGASVKLSCTASGFKIKDTYIHWVIQRPAQGLEWIGRIDPANGNTIYGSKFQGKATLTADTSSNTAYIHLSSLTSGDSAVYYCAGYVWFAYWGQGTLVTVSA VL: DVVMTQVPLSLPVSLGDQASISCRSSQRLVHSNGNTYLHWFLQKPGQSPKLLIYTVSNRFSGVPDRFSGSGSGTDFTLKISRVEAEDLGVYFCSQSTLVPWTFGGGTKLEIK | 1400 fluorescence intensity | – | 42 fluorescence intensity | 25900 fluorescence intensity

From patent US20160215048A1 (published 2016)
